Test results as given in publication PMC6456427.
Where two headings read alike, the source gives them in different places.

Legend:
Test in all cases: SEC
[1] = molecular target: Actinobacillus ureae class Id ribonucleotide reductase α subunit (Actinobacillus ureae)
[2] = molecular target: Actinobacillus ureae class Id ribonucleotide reductase α subunit (Actinobacillus ureae); remark: listed apart in the source
[3] = molecular target: Flavobacterium johnsoniae class Id ribonucleotide reductase α subunit (Flavobacterium johnsoniae)

Row | Substance | stoichiometry N [1] | stoichiometry N [2] | stoichiometry N [3]
1 | Actinobacillus ureae class Id ribonucleotide reductase α subunit (enzyme) | 2 | 2 | 
2 | Flavobacterium johnsoniae class Id ribonucleotide reductase α subunit (enzyme) |  |  | 2
